The assay deals with T1, EloBC (elongin B - elongin C heterodimer), Q15370.
T1 chain 1: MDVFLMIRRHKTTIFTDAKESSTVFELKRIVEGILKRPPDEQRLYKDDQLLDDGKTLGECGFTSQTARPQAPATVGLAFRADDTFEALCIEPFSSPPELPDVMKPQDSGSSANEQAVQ
T1 chain 2: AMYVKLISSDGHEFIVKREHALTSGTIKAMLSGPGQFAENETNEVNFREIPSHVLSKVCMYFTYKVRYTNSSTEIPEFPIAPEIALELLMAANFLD
Kind of assay: ITC. For orientation: ITC needs no label: the signal is the heat of the interaction.

B1: Vif BC-box protein (domain or fragment)
chain: HNKVGSLQYLALAAL
modifications: not checked
As to B1, the Kd (in general, a measure of binding affinity in units of concentration) is 2200 nM.

The record behind these values is PMC2880568.
